Biological target: cSFB-RBPJ protein purified from 293F cells, Q06330
Assay: BLI
Settings: remark: other sources report otherwise

- Kd: 47 nM
B1: FLAG-FBXO42 protein purified from 293F cells, Q6P3S6 1-717 (natural protein)
chain: MASSSDSEDDSFMAVDQEETVLEGTMDQDEEPHPVLEAEETRHNRSMSELPEEVLEYILSFLSPYQEHKTAALVCKQWYRLIKGVAHQCYHGFMKAVQEGNIQWESRTYPYPGTPITQRFSHSACYYDANQSMYVFGGCTQSSCNAAFNDLWRLDLNSKEWIRPLASGSYPSPKAGATLVVYKDLLVLFGGWTRPSPYPLHQPERFFDEIHTYSPSKNWWNCIVTTHGPPPMAGHSSCVIDDKMIVFGGSLGSRQMSNDVWVLDLEQWAWSKPNISGPSPHPRGGQSQIVIDDATILILGGCGGPNALFKDAWLLHMHSGPWAWQPLKVENEEHGAPELWCHPACRVGQCVVVFSQAPSGRAPLSPSLNSRPSPISATPPALVPETREYRSQSPVRSMDEAPCVNGRWGTLRPRAQRQTPSGSREGSLSPARGDGSPILNGGSLSPGTAAVGGSSLDSPVQAISPSTPSAPEGYDLKIGLSLAPRRGSLPDQKDLRLGSIDLNWDLKPASSSNPMDGMDNRTVGGSMRHPPEQTNGVHTPPHVASALAGAVSPGALRRSLEAIKAMSSKGPSASAALSPPLGSSPGSPGSQSLSSGETVPIPRPGPAQGDGHSLPPIARRLGHHPPQSLNVGKPLYQSMNCKPMQMYVLDIKDTKEKGRVKWKVFNSSSVVGPPETSLHTVVQGRGELIIFGGLMDKKQNVKYYPKTNALYFVRAKR
